The target of experiment [1] is dCas9-3xRFP (Streptococcus pyogenes) (UniProt Q99ZW2). Nature of the experiment: cell-based or functional assay.
In the next experiment the target is dCas9-p300 (UniProt Q99ZW2). The experiment is described as follows: cell-based or functional assay.

Where only a bound is given, the exact number is not on record here.

In experiment [1], “CASANOVA (Acr-LOV variant 4; delta N64/Q65/E66, LOV2 inserted, no GS-linkers)” had a telomere labeling in U2OS nuclei, dark: cells labeling negative of 60%; a telomere labeling in U2OS nuclei, dark: more than 15 dots in the nucleus below 5%; a telomere labeling in U2OS nuclei, light: more than 15 dots in the nucleus of 40%; a telomere labeling in U2OS nuclei, light: nuclei labeling positive of 80%. Further, the IL1RN transcript levels by quantitative RT-PCR, light against dark with dCas9-p300 is below 10 fold.

These data come from US20210198328A1, “MODULATED CAS-INHIBITORS” (Universität Heidelberg, priority 2017, published 2021).
